# The DeepSol protein solubility set
# Assay: soluble on expression in E. coli; label from the status in PepcDB or PDB records
row,Sequence,soluble on expression in E. coli
1,MNSIHGHYHIQLSNYSAGENLQSATLTEGVIGAHRVKVETALSHSNLQKKLSATIKHNQSGRSMLDRKLTSDGKANQRSSFTFSMIMYRMIHFVLSTRVPAVRESVANYGGNINFKFAQTKGAFLHKIIKHSDTASGVCEALCAHWIRSHAQGQSLFDQLYVGGRKGKFQIDTLYSIKQLQIDGCKADVDQDEVTLDWFKKNGISERMIERHCLLRPVDVTGTTESEGLDQLLNAILDTHGIGYGYKKIHLSGQMSAHAIAAYVNEKSGVTFFDPNFGEFHFSDKEKFRKWFTNSFWGNSMYHYPLGVGQRFRVLTFDSKEV,not soluble
2,MSLTVSFVRIDDRMIHGQTVTRWAKEYPCDGLIAVNDAAAKNKVLIQAYKGASDKKTFVWSKEAFAAKSQKVSDSDSRYFLITKNPVDMKEILVDQGFVPGEVKEIIVGPANDRPGAVKLGNNQSITQEEADAIEAIEKAGYKVKFQLLPDVSIGYWSDFKGKFGEGHHHHHH,soluble
3,MSERIASVERTTSETHISCTIDLDHIPGVTEQKINVSTGIGFLDHMFTALAKHGGMSLQLQCKGDLHIDDHHTAEDCALALGEAFKKALGERKGIKRYGYAYAPLDESLSRAVIDISSRPYFMCHLPFTREKVGDLSTEMVSHLLQSFAFAAGVTLHIDSIRGENNHHIAESAFKALALAIRMAISRTGGDDVPSTKGVLAL,soluble
4,MKVLRHGLFKDRRVFDENYIPPELRVRRGEAEALARIYLNRLLSGAGLSDVNMIYGSIGRVGIGKTTLAKFTVKRVSEAAAKEGLTVKQAYVNAFNAPNLYTILSLIVRQTGYPIQVRGAPALDILKALVDNLYVENHYLLVILDEFQSMLSSPRIAAEDLYTLLRVHEEIPSRDGVNRIGFLLVASDVRALSYMREKIPQVESQIGFKLHLPAYKSRELYTILEQRAELGLRDTVWEPRHLELISDVYGEDKGGDGSARRAIVALKMACEMAEAMGRDSLSEDLVRKAVSENEAASIQTHELEALSIHELIILRLIAEATLGGMEWINAGLLRQRYEDASLTMYNVKPRGYTQYHIYLKHLTSLGLVDAKPSGRGMRGRTTLFRLAPHLPADRLIEVVDNIIQAKMASGYE,soluble
5,MKKFSSLFRSFMHFQLTLVKPLTRRSRPIELGRLNCTEPVSSNFGFERGRPIDRYYINIFLSQNTNDVRGRVLEISDNGYTKRLGGKKVKQSDVLHAVEGNPKATIVSDITKADNIPSDSFDCIILTQTLQFIYDTKSAVRHLHRILKPNGVLLATMSGISQISRYDMDHWGEYWRFTTASAKQLFEEEFLPENIEVKAYGNVLSSTAFLYGLAVEDLKTEQLDYHDPNYQMLVTVRAVKADKQLEHHHHHH,not soluble
6,YIKYFNDKTIDEELERDKRVTWIVEFFANWSNDCQSFAPIYADLSLKYNCTGLNFGKVDVGRYTDVSTRYKVSTSPLTKQLPTLILFQGGKEAMRRPQIDKKGRAVSWTFSEENVIREFNLNEL,soluble
7,MGSDKIHHHHHHMEKFDVIVVGGGPAGLSAAISAAQAGMKTAVIERGDYPGTKNVMGGVLYTEATNEVVPDFWKEAPLERPVIEQRYAFLSKDEILSAGYRDPAWGQPPYNAHTVLRVKFDRWLADQAVKAGVMIITETLVEDLLYHGDDVVGVRTGRAEGDLGAQVVILAEGANNFLACKAGLAKPLRPENMAVVVKEIIELPPEKIEDRFCLEPHEGATIELFGDSTDGMMGTSFIYTNKNSLSIGVGAMVHSMSEKGWSPNDLLENLKAKPYVKRLLQGGETKEYLAHLIPEGGYNAIPKLYRQGVMVVGDTAMFVNGLNREGSNLAMISGKIAGKVAAEAIQSGDLSAHGMSVYESRLRDSFVIKDLYKFRKLMPFIESNPHLLGQYPEILNQAARMYFTADGTPKAQVFSNIMDMMFKKRTKTGLVKDMFNAWRALK,not soluble
8,MSERSVSKQDQEKRWYTVLAPEEFDRAELGETLAEEPDQVYDRTIQAALSDVRDGGDNNIKLTFQIDDVGSDSASTQFVQAELTRDYQRSLVRRGSSKVAVTVTVLTTDDYRVRIQPVAYTTKQADQSQQHAIRRTMIDLVEEAGEERTFEALLNSIIEGRLSSAIYDEANTIYPLRRVEVEKATLEAHPEEVHEEEETAVDFSGELEHHHHHH,soluble
9,MGKKQHQKDKLYLTTSEWKSIGGHKDDTGTRLQRAQFKRLPINHCSLSLLPFEDPVCARSGEIFDLTAIVPYLKKHGKNPCTGKPLVAKDLIHLKFDKGEDGKFRCPVTFRTFTDHSHILAIATSGNVYSHEAVQELNLKRNHLKDLLTDVPFTRADIIDLQDPNHLEKFNMEQFLHVKLDLKTSEEIKKEKDAMKDPKFYIRRMNNACKSVLDQLDKEYVPKKSSTETDETADEINAAHYSQGKVAAGFTSTVMAPVTSNKAAVLDNDTVRYSRVKKNAFVRLVTNFGPLNLELFAPKVPKACENFITHCSNGYYNNTKFHRLIKNFMLQGGDPTGTGHGGESIWDKPFSDEFISGFSHDARGVLSMANKGSNTNGSQFFITFRPCKYLDRKHTIFGRLVGGQDTLTTIEKLETEEGTDVPMVSVVIMRAEVFVDPFEEAEKEVQAERAEILKKTSKDAASLANKKAKETATKPEAVGTGVGKYMKSAAAVNKRQGKMEDVPLEAAKKTKFARAGLGDFSKW,not soluble
10,MSLESLVPYNETVSTEVQFAKALEKYKFDLLHAKSNFHDQDQEQNTADVNNQHLQTQAQSSSPFDIVQKFADIAAANAYSVLPDQLSSNIDDDVYDQDFTNWDLEMKFWRLVENLNYYRVFCYENEVFGKEKEIGELYAILDWLQYHSAGEREHDQILKDQLGNEDENGNGDEEEKLLGTRSKWINTRLSIENGVYDALSGKNSNDQLIQEMDVDAPLRSGMHVDAKDAELDSKNFQAIYKLVVLGEYTDAIEFANETGNHALAVILAGAISFVEDDDQVMELANEVEGEGNIKLSASTRDKTIWVRLVYKLSKNTNLDPNERLIYSYLSGGDISENLKRASDSYEESINILVRQLLTYSELQKMHLNSFVEFTPPAPQANSMKDILNIVSNSLGSRAAEESRHPVRILMAAIMLDDLDPIISDLNDSTNDNILRILVHASLFLALLRSPQNPEQLNALITLYISKLTENNQTELVPLYLSFIPDERDARETYSLILASITDKEQRRKQLEIAKGISQSHQQSPLPLLQSQPSSHSNEDTEMVPIDDVEQDKLVNVLRRTVERVMDETEEYYNPGNEPFAIVDSGSEGHHHHHH,soluble
11,MEKEQLIEIANTIMPFGKYKGRRLIDLPEEYLLWFARKDEFPAGKLGELMQITLLIKNEGLTQLVQPLKRPL,soluble
12,MSQQKSDFADDADIDESLDELASEETIEETVENLEANGFEVIVVNSADDALAELQSLIPAEASVMNGHSTTLEEIGFDEYLSDGDHGWESLPEEIWSIDDDAKRQAARRESQTADYFLGGINGISQTGELVAADRSGSRIGAYPFAASNVVIVSGVNKIVPTLEDALDRLETVAYPLENERAKEAYGVDSAIAKQLILRQELEEGRTTVVLIREHLGYLEHHHHHH,soluble
13,STSGTSVINDKVLQYETFISEVLRRDLQKVLEQRDAVYEKIAQYLQLKNTIQSIQGSGSKELKTDVDLGCNFYVQAHVPDASRIYVAVGYGFFVEFTHVEALKFIEKKTNQLTEYTEVLTKDAAKIKANIRMVLEGLRELQGLKDLPEDRRREVF,soluble
14,MVKVIASSVRKGNVLDVDGKLYVVLTAQNFHPGKGTPVTQVDMRRIVDGTKVSERWRTTEQVERAFVEDLNFQFLYEDGEGFHFMNPENYDQVVVDVETMGDQKAYLQEGMTCVLSIHEGNPLAVELPRHVTLEIVETEPVVKGQTASSSYKPAILSNGIRTMVPPHIDAGIRVVIATEDNSYVERAKN,not soluble
15,MATQQAKILCCGDVNGNFVELIKKISTTEKKNGPFDSLFCVGEFFGDDDDSNEKVINGNIEFPIPTYILGPANPRYSYLYPEESIEFSSNLTYLGKKGLLNTASGLQIAYLSGVEGSSKDLSCFDKADVEELLIPLGTQVGFSGTDILLTSVWPADIARHSHNQPSKPQPGSVLLSKLAAHLKPRYHFAGLGVHYERQPYRNHRVLLEPARHTTRFIGLAAIGNPEKQKWLYACNVKPMRKMEKEELTAQPPNASEFPYRELLEEIAAKETLSRMNGNGQRPEGSQYRFEMGGAEDGAGNGRKRHNDGGNDGPRNKQPVGPCWFCLSNVDAEKHLVVAIGNKCYAAMPKGPLTEDHVMVLSVGHIQSQVSAPVEVRDEIEKFKSAFTLMANKQGKALVTFERNFRTQHLQVQMVMIDKSSSKALKSSFTTAAACAGFELVTMGPDESLLDMVNEGCPYFVAELPDGSKLFTRSMKGFPLHFGREVLASTPILDCEDKVDWKACVLAKEKEVELVNKLKSDFKPFDFTAEDDSD,not soluble
